This note sets out measurements from US20210380685A1.

Test [1] deals with LRID Fab fused to the GPI signal sequence from decay accelerating factor, on SP2/0 cells (Fab-GPI). As to the kind of experiment: cell-based or functional assay.
In test [2] the target is LRID Fab fused to the transmembrane portion of glycophorin A, on SP2/0 cells (Fab-GlycoA). As to the kind of experiment: cell-based or functional assay.

Bounds are passed on as bounds.

Chain of LRID Fab fused to the GPI signal sequence from decay accelerating factor, on SP2/0 cells (Fab-GPI) (VH, as listed by the source limits assumed, chain 1 of 2): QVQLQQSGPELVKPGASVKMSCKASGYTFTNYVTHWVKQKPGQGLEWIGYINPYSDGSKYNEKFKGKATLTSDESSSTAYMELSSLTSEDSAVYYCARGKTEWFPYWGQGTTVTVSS
Chain of LRID Fab fused to the GPI signal sequence from decay accelerating factor, on SP2/0 cells (Fab-GPI) (VL, as listed by the source limits assumed, chain 2 of 2): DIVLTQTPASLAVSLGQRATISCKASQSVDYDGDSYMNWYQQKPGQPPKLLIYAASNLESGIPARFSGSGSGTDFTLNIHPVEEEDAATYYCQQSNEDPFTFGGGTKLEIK
Chain of LRID Fab fused to the transmembrane portion of glycophorin A, on SP2/0 cells (Fab-GlycoA) (VH, as listed by the source limits assumed, chain 1 of 2): as the sequence (VH, as listed by the source limits assumed, chain 1 of 2) above
Chain of LRID Fab fused to the transmembrane portion of glycophorin A, on SP2/0 cells (Fab-GlycoA) (VL, as listed by the source limits assumed, chain 2 of 2): as the sequence (VL, as listed by the source limits assumed, chain 2 of 2) above

B1: SM03 (antibody, V domains shown)
VH: QVQLQESGGGLVKPGGSLKLSCAASGFAFSIYDMSWVRQTPEKRLEWVAYISSGGGTTYYPDTVKGRFTISRDNAKNTLYLQMSSLKSEDTAMYYCARHSGYGSSYGVLFAYWGQGTLVTVSS
VL: DIQLTQTTSSLSASLGDRVTISCRASQDISNYLNWYQQKPDGTVKLLIYYTSILHSGVPSRFSGSGSGTDYSLTISNLEQEDFATYFCQQGNTLPWTFGGGTKLEIKR
modifications: here or on the partner: The mature protein on cells carries a GPI anchor in place of the cleaved DAF signal; the letters cannot show this.
With B1, in test [1], the CMC activities, maximum killing was above 90% and the CMC killing of surrogate target cells, EC50 is 220 µg/mL. In test [2], this molecule yielded a CMC activities, maximum killing above 90% and a CMC killing of surrogate target cells, EC50 of 130 µg/mL.
